Patent CN113621079A

Assays:
CA724 胃癌抗原 (B72.3抗原) [1] = test: ELISA, antigen coated at 100 ng/mL, HRP goat anti-mouse Fab secondary, OD450
CA724 胃癌抗原 (B72.3抗原) [2] = test: direct ELISA, antigen coated at 100 ng/mL, pNPP substrate read through the attached ALP; plateau value
CA724 胃癌抗原 (B72.3抗原) [3] = test: direct ELISA, antigen coated at 100 ng/mL, pNPP substrate read through the fused AP; still in linear range, no plateau

Chain of Fab抗体与碱性磷酸酶融合蛋白(Fab)2-AP (CA724-B72.3 Fab fused to calf intestinal alkaline phosphatase, Fab:AP monomer 1:1) (light, form in doubt): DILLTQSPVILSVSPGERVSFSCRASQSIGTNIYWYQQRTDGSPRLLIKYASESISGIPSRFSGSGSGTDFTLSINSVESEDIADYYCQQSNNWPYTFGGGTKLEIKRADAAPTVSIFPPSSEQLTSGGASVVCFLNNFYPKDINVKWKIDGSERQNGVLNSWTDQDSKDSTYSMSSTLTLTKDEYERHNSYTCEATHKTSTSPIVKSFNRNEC

Substance	fold decrease of high-end antibody activity (against the original antibody / fusion protein) (CA724 胃癌抗原 (B72.3抗原) [1])	最高吸光值 (405nm) (CA724 胃癌抗原 (B72.3抗原) [2]) [OD405]	吸光值 (405nm) (CA724 胃癌抗原 (B72.3抗原) [3]) [OD405]
对照抗体化学标记ALP蛋白 (CA724-B72.3 antibody chemically labelled with alkaline phosphatase)	1 倍	0.8	
Fab抗体与碱性磷酸酶融合蛋白(Fab)2-AP (CA724-B72.3 Fab fused to calf intestinal alkaline phosphatase, Fab:AP monomer 1:1)			1.2
